Assay [1] addresses T1, cynomolgus CD93 protein (made in-house) (cynomolgus, UniProt A0A2K5VH53 22-580, biotinylated with EZ-LINK NHS-PEG4 biotin in the Octet assays).
T1 chain: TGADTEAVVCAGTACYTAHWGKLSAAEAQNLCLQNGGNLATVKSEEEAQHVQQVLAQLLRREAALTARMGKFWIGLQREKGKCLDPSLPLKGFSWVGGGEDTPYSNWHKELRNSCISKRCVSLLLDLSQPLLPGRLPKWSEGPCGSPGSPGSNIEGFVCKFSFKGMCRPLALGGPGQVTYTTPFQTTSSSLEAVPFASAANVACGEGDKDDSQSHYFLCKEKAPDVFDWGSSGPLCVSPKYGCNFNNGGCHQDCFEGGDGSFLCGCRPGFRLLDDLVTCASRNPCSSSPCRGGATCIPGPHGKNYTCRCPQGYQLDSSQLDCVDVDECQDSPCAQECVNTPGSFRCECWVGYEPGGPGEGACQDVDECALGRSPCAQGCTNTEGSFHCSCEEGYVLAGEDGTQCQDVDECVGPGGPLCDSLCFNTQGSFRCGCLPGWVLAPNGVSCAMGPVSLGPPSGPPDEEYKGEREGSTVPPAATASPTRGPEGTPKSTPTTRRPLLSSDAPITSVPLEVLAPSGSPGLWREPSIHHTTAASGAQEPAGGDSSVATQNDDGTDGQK
Put plainly: BLI. (In BLI a coated tip is dipped into the sample, and binding shifts an interference pattern.)

The target of assay [2] is T2, Human CD93 recombinant protein (Sino Biological Inc, Catalog #12589-H08H) (human, UniProt Q9NPY3 22-580, biotinylated with EZ-LINK NHS-PEG4 biotin in the Octet assays).
T2 chain: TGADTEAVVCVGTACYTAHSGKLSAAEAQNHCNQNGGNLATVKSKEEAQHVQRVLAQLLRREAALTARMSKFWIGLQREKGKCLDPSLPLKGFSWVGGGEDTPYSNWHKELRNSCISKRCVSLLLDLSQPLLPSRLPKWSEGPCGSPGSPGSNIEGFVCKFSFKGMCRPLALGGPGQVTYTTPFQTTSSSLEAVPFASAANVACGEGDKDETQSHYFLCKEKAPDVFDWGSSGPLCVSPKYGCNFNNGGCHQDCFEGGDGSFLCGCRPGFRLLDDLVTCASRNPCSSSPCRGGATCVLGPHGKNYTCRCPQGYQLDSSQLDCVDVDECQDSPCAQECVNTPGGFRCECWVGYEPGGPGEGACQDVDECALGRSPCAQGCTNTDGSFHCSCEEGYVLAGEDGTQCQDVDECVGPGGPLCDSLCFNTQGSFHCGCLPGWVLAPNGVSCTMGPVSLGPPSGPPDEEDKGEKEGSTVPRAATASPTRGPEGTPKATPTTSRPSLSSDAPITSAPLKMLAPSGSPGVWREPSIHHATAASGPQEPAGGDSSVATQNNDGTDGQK
Put plainly: BLI.

Assay [3] has as its target T2, Human CD93 recombinant protein (Sino …). Put plainly: Octet.
The target is the same in assay [4]. Put plainly: ELISA. A general note: An ELISA detects its analyte on a solid surface through an enzyme-linked reagent.
Assay [5] has the same target. Put plainly: ELISA; unit printed as pmM.
Assay [6] shares this target. Put plainly: Octet BLI.
The target is the same in assay [7]. Put plainly: ELISA.
Assay [8] shares this target. Put plainly: ELISA.
The target is the same in assay [9]. Put plainly: BLI (Octet).

As a reminder, the Kd is the equilibrium constant for the complex coming apart. One may read the EC50 as the concentration at which the effect is half-maximal.

B1: 16E4 (hybridoma) (antibody, V domains shown)
VH: QVQLQQPGAELVKPGASVKLSCKASGYTFTSYWMHWVKQRPGQGLEWIGEIDPSASYTYYNQKFKGKATLTVDKSSSTAYMQLSSLTSEDSAVYYCARSVYYGNKYFDVWGAGTTVTVSS
VL: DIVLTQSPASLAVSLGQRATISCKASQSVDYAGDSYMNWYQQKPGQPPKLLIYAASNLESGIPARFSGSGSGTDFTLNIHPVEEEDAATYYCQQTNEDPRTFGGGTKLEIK
As for B1, the equilibrium dissociation constant (Kd) stood at 0.446 nM in assay [1], 0.447 nM in assay [2] and 0.334 nM in assay [3]. In addition, the concentration giving a half-maximal response (EC50) in assay [4] and in [5] was 0.112 nM throughout.

B2: 16E4-hIgG1 (antibody, V domains shown)
VH: QVQLQQPGAELVKPGASVKLSCKASGYTFTSYWMHWVKQRPGQGLEWIGEIDPSASYTYYNQKFKGKATLTVDKSSSTAYMQLSSLTSEDSAVYYCARSVYYGNKYFDVWGAGTTVTVSS
VL: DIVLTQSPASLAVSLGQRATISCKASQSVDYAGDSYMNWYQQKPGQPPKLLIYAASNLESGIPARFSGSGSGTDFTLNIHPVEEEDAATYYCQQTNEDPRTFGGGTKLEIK
Consider B2, for which the dissociation constant Kd in [3] and in assay [6] was 0.135 nM each time. Also, the 50% effective concentration (EC50) in assay [7] stood at 0.041 nM; in [8], 0.022 nM; in assay [4], 0.041 nM.

B3: 10B1 (antibody, V domains shown)
VH: QVQLKQSGPGLVQPSQSLSITCTVSDFSLSSFGVNWVRQPPGKGLEWLGVIWSGGSTDYNVAFISRLSISKDNSKSQVFFKMNNLQADDTAIYYCARNWRYDGYFYAMDYWGQGTSVTVSS
VL: DIVMTQSQKFMSTSTGDRVSVTCKASQNVGTNVAWYQQKPGQSPKALIYSASYRFIGVPDRFTGSGSGTDFTLTITNVQSEDLAEYFCQQYNRNPITFGSGTKLEIK
As to B3, the Kd in assay [9] was found to be 0.904 nM.

B4: Humanized 17B10 (VH3VL3, i.e., H3L3) (antibody, V domains shown)
VH: QVQLVQSGPEVKKPGESLKISCKASGYAFSSYWLNWVRQMPGKGLEWMGRIYPGDGDTDYNGKFKGQVTISADKSSGTAYLQLSSLKASDTAVYFCVRGDGYWAMDYWGQGTLVTVSS
VL: DIVMTQSPDSLAVSLGERATINCRFSKSLLHSNGITYLYWYQQKPGQPPKLLIYQMSNLASGVPDRFSGSGSGTDFTLTISSLQAEDVAVYYCAQNLELPWTFGGGTKLEIK
Turning to B4, in assay [7], the EC50 was 0.213 nM.

B5: 7F3 (hybridoma) (antibody, V domains shown)
VH: QVQLQQSGADLVRPGASVKLSCKASGYTFTDYEMHWVKQTPVYGLEWIGGIDPETGDTAYNQNFKGKATLTADKSSSAAYMELRSLTSEDSAVYYCTNYGNLYYYAMDYWGQGTSVTVSS
VL: ENVLTQSPAIMSASPGEKVTMTCRASSSVSSSYLHWYQQKSGASPKLWIYSTSNLAFGVPARFSGSGSGTSYSLTISSVEAEDAATYYCQQYSGYPLTFGSGTKLEIK
For the molecule B5, the Kd came to 0.493 nM in assay [3] and 1.26 nM in assay [9]. For the same molecule, the EC50 in [8] and in assay [4] was 0.0667 nM in each case.

B6: 7F3-hIgG1 (antibody, V domains shown)
VH: QVQLQQSGADLVRPGASVKLSCKASGYTFTDYEMHWVKQTPVYGLEWIGGIDPETGDTAYNQNFKGKATLTADKSSSAAYMELRSLTSEDSAVYYCTNYGNLYYYAMDYWGQGTSVTVSS
VL: ENVLTQSPAIMSASPGEKVTMTCRASSSVSSSYLHWYQQKSGASPKLWIYSTSNLAFGVPARFSGSGSGTSYSLTISSVEAEDAATYYCQQYSGYPLTFGSGTKLEIK
For B6, the dissociation constant Kd in assay [3] and in assay [6] was 0.588 nM each time. The half-maximal effective concentration (EC50) in assay [4] turned out to be 0.041 nM.

B7: recombinant parental 17B10-hFc (antibody, V domains shown)
VH: QVQLQQSGPELVKPGASVKISCKASGYAFSSYWLNWVKQRPGKGLEWFGRIYPGDGDTDYNGKFKGKATLTADKSSSTAYMQLRSLTSEDSAVYFCVRGDGYWAMDYWGQGTSVTVSS
VL: DIVMTQAAFSNPVTLGTSASISCRFSKSLLHSNGITYLYWYLQKPGQSPQLLIYQMSNLASGVPDRFSSSGSGTDFTLRISRVEAEDVGVYYCAQNLELPWTFGGGTKLEIK
On to B7, for which the concentration giving a half-maximal response (EC50) in [7] was 0.0167 nM.

B8: 17B10 (hybridoma) (antibody, V domains shown)
VH: QVQLQQSGPELVKPGASVKISCKASGYAFSSYWLNWVKQRPGKGLEWFGRIYPGDGDTDYNGKFKGKATLTADKSSSTAYMQLRSLTSEDSAVYFCVRGDGYWAMDYWGQGTSVTVSS
VL: DIVMTQAAFSNPVTLGTSASISCRFSKSLLHSNGITYLYWYLQKPGQSPQLLIYQMSNLASGVPDRFSSSGSGTDFTLRISRVEAEDVGVYYCAQNLELPWTFGGGTKLEIK
Consider B8, for which, in [7], the EC50 was determined as 0.153 nM.
